Assay results published in publication PMC5120336, “The N-terminal loop of IRAK-4 death domain regulates ordered assembly of the Myddosome signalling scaffold” (Scientific Reports, 2016).

B1: MyD88 containing the death domain and intermediate domain (aa 1 to 158) (domain or fragment, human, UniProt Q99836 1-158, looked up)
chain: MAAGGPGAGSAAPVSSTSSLPLAALNMRVRRRLSLFLNVRTQVAADWTALAEEMDFEYLEIRQLETQADPTGRLLDAWQGRPGASVGRLLELLTKLGRDDVLLELGPSIEEDCQKYILKQQQEEAEKPLQVAAVDSSVPRTAELAGITTLDDPLGHMP
notes: MyD88, human, death domain and intermediate domain, aa 1 to 158; Alone it elutes as a dimer (35 kDa) on size exclusion; also called MyD88 DD; MyD88 death domain; source: E. coli BL21 Star (DE3), purified (GSTrap with on-column Tev cleavage, HisTrap, Superdex 75); not shown: 6xHis-GST, N-terminal, cleaved
B2: IRAK-4 kinase dead mutant (KK213AA) (LUMIER construct) (natural protein, human, UniProt Q9NWZ3 1-460, looked up)
chain: MNKPITPSTYVRCLNVGLIRKLSDFIDPQEGWKKLAVAIKKPSGDDRYNQFHIRRFEALLQTGKSPTSELLFDWGTTNCTVGDLVDLLIQNEFFAPASLLLPDAVPKTANTLPSKEAITVQQKQMPFCDKDRTLMTPVQNLEQSYMPPDSSSPENKSLEVSDTRFHSFSFYELKNVTNNFDERPISVGGNKMGEGGFGVVYKGYVNNTTVAVAALAAMVDITTEELKQQFDQEIKVMAKCQHENLVELLGFSSDGDDLCLVYVYMPNGSLLDRLSCLDGTPPLSWHMRCKIAQGAANGINFLHENHHIHRDIKSANILLDEAFTAKISDFGLARASEKFAQTVMTSRIVGTTAYMAPEALRGEITPKSDIYSFGVVLLEIITGLPAVDEHREPQLLLDIKEEIEDEEKTIEDYIDKKMNDADSTSVEAMYSVASQCLHEKKNKRPDIKKVQQLLQEMTAS
notes: IRAK-4, human; also called kinase dead IRAK-4; KD

Legend:
[1] = molecular target: the molecule itself; assay: SEC; Myddosome assembly assay: death domains alone or mixed 1:1, concentrated to 0.5 mg.ml^-1, calibrated TSKgel SuperSW3000 analytical size exclusion column, 0.3 ml.min^-1, peaks analysed by reducing SDS-PAGE
MyD88 (LUMIER construct) = molecular target: T1, MyD88 (LUMIER construct) (human, UniProt Q99836 1-296); assay: LUMIER; affinity purification of Protein A tagged proteins on magnetic IgG beads (Dynabeads M-280, sheep anti-rabbit IgG); co-purified protein detected by Renilla luciferase activity; conditions: partners not purified
T1 construct: MyD88, human

| Binder | stoichiometry N [1] | fold binding against wild-type IRAK-4 (MyD88 (LUMIER construct)) [fold] |
| --- | --- | --- |
| B1 | 2 | – |
| B2 | – | ~5 |
